{"source": "the Immune Epitope Database (IEDB)", "key": {"[1]": {"target": "HLA-A*02:01", "test": "IEDB peptide-MHC binding, cellular MHC/competitive/fluorescence; ≥ and ≤ were set here for values at or beyond the usual limits of such assays"}, "[2]": {"target": "HLA-A*02:03", "test": "IEDB peptide-MHC binding, cellular MHC/competitive/fluorescence; ≥ and ≤ were set here for values at or beyond the usual limits of such assays"}, "[3]": {"target": "HLA-A*02:06", "test": "IEDB peptide-MHC binding, purified MHC/competitive/radioactivity; ≥ and ≤ were set here for values at or beyond the usual limits of such assays"}, "[4]": {"target": "HLA-A*68:02", "test": "IEDB peptide-MHC binding, purified MHC/competitive/radioactivity; ≥ and ≤ were set here for values at or beyond the usual limits of such assays"}, "[5]": {"target": "HLA-A*02:02", "test": "IEDB peptide-MHC binding, purified MHC/competitive/radioactivity; ≥ and ≤ were set here for values at or beyond the usual limits of such assays"}, "[6]": {"target": "HLA-A*68:02", "test": "IEDB peptide-MHC binding, cellular MHC/competitive/fluorescence; ≥ and ≤ were set here for values at or beyond the usual limits of such assays"}, "[7]": {"target": "HLA-A*02:01", "test": "IEDB peptide-MHC binding, purified MHC/competitive/radioactivity; ≥ and ≤ were set here for values at or beyond the usual limits of such assays"}, "[8]": {"target": "HLA-A*02:06", "test": "IEDB peptide-MHC binding, cellular MHC/competitive/fluorescence; ≥ and ≤ were set here for values at or beyond the usual limits of such assays"}, "[9]": {"conditions": "source organism: Mammarenavirus lassaense"}, "[10]": {"conditions": "source organism: Mammarenavirus guanaritoense"}, "[11]": {"conditions": "source organism: Vaccinia virus WR"}, "[12]": {"conditions": "source organism: Mammarenavirus brazilense"}, "[13]": {"conditions": "source organism: Mammarenavirus machupoense"}, "[14]": {"conditions": "source organism: Influenza A virus"}}, "data": [{"sequence": "CNYSKYWYL", "values": [{"measurement": "IC50", "setting": "[1]; [9]", "value": 16.3, "unit": "µM"}, {"measurement": "IC50", "setting": "[2]; [9]", "value": 7.13, "unit": "µM"}, {"measurement": "IC50", "setting": "[3]; [9]", "value": 2710, "unit": "nM"}, {"measurement": "IC50", "setting": "[4]; [9]", "value": 4190, "unit": "nM"}, {"measurement": "IC50", "setting": "[5]; [9]", "value": 3660, "unit": "nM"}]}, {"sequence": "TNAEFTFQL", "values": [{"measurement": "IC50", "setting": "[1]; [10]", "value": 5.02, "unit": "µM"}, {"measurement": "IC50", "setting": "[2]; [10]", "value": 15.1, "unit": "µM"}, {"measurement": "IC50", "setting": "[3]; [10]", "value": 3620, "unit": "nM"}, {"measurement": "IC50", "setting": "[4]; [10]", "value": 5.3, "unit": "nM"}, {"measurement": "IC50", "setting": "[5]; [10]", "value": 404, "unit": "nM"}]}, {"sequence": "YALEPRKEI", "values": [{"measurement": "IC50", "setting": "[1]; [11]", "value": 9.81, "unit": "µM"}, {"measurement": "IC50", "setting": "[2]; [11]", "value": 7.07, "unit": "µM"}, {"measurement": "IC50", "setting": "[3]; [11]", "value": 4110, "unit": "nM"}, {"measurement": "IC50", "setting": "[4]; [11]", "value": 710, "unit": "nM"}, {"measurement": "IC50", "setting": "[5]; [11]", "value": 3700, "unit": "nM"}]}, {"sequence": "EQGDIALAL", "values": [{"measurement": "IC50", "setting": "[1]; [11]", "value": 13, "unit": "µM"}, {"measurement": "IC50", "setting": "[2]; [11]", "value": 11.1, "unit": "µM"}, {"measurement": "IC50", "setting": "[3]; [11]", "value": 4770, "unit": "nM"}, {"measurement": "IC50", "setting": "[4]; [11]", "value": 800, "unit": "nM"}, {"measurement": "IC50", "setting": "[5]; [11]", "value": 701, "unit": "nM"}]}, {"sequence": "LNISGYNYSL", "values": [{"measurement": "IC50", "setting": "[1]; [12]", "value": 10.6, "unit": "µM"}, {"measurement": "IC50", "setting": "[2]; [12]", "value": 49, "unit": "µM"}, {"measurement": "IC50", "setting": "[6]; [12]", "value": 12.9, "unit": "µM"}, {"measurement": "IC50", "setting": "[3]; [12]", "value": 1100, "unit": "nM"}, {"measurement": "IC50", "setting": "[5]; [12]", "value": 77, "unit": "nM"}]}, {"sequence": "HLTENNLYI", "values": [{"measurement": "IC50", "setting": "[2]; [11]", "value": 14.4, "unit": "µM"}, {"measurement": "IC50", "setting": "[6]; [11]", "value": 5.81, "unit": "µM"}, {"measurement": "IC50", "setting": "[7]; [11]", "value": 15, "unit": "nM"}, {"measurement": "IC50", "setting": "[3]; [11]", "value": 1810, "unit": "nM"}, {"measurement": "IC50", "setting": "[5]; [11]", "value": 114, "unit": "nM"}]}, {"sequence": "KSYFTNAAL", "values": [{"measurement": "IC50", "setting": "[2]; [13]", "value": 7.18, "unit": "µM"}, {"measurement": "IC50", "setting": "[8]; [13]", "value": 12, "unit": "µM"}, {"measurement": "IC50", "setting": "[7]; [13]", "value": 4970, "unit": "nM"}, {"measurement": "IC50", "setting": "[4]; [13]", "value": 106, "unit": "nM"}, {"measurement": "IC50", "setting": "[5]; [13]", "value": 593, "unit": "nM"}]}, {"sequence": "HTYHLENDKI", "values": [{"measurement": "IC50", "setting": "[1]; [11]", "value": 59, "unit": "µM"}, {"measurement": "IC50", "setting": "[2]; [11]", "value": 13.7, "unit": "µM"}, {"measurement": "IC50", "setting": "[3]; [11]", "value": 1990, "unit": "nM"}, {"measurement": "IC50", "setting": "[4]; [11]", "value": 284, "unit": "nM"}, {"measurement": "IC50", "setting": "[5]; [11]", "value": 1790, "unit": "nM"}]}, {"sequence": "VLTSVDIET", "values": [{"measurement": "IC50", "setting": "[2]; [11]", "value": 11.3, "unit": "µM"}, {"measurement": "IC50", "setting": "[6]; [11]", "value": 37.5, "unit": "µM"}, {"measurement": "IC50", "setting": "[7]; [11]", "value": 136, "unit": "nM"}, {"measurement": "IC50", "setting": "[3]; [11]", "value": 14, "unit": "nM"}, {"measurement": "IC50", "setting": "[5]; [11]", "value": 382, "unit": "nM"}]}, {"sequence": "LNKSDSSWAV", "values": [{"measurement": "IC50", "setting": "[2]; [13]", "value": 5.25, "unit": "µM"}, {"measurement": "IC50", "setting": "[6]; [13]", "value": 8.7, "unit": "µM"}, {"measurement": "IC50", "setting": "[7]; [13]", "value": 1230, "unit": "nM"}, {"measurement": "IC50", "setting": "[3]; [13]", "value": 2190, "unit": "nM"}, {"measurement": "IC50", "setting": "[5]; [13]", "value": 550, "unit": "nM"}]}, {"sequence": "LTHFNNNENV", "values": [{"measurement": "IC50", "setting": "[1]; [11]", "value": 6.59, "unit": "µM"}, {"measurement": "IC50", "setting": "[2]; [11]", "value": 7.27, "unit": "µM"}, {"measurement": "IC50", "setting": "[3]; [11]", "value": 996, "unit": "nM"}, {"measurement": "IC50", "setting": "[4]; [11]", "value": 11, "unit": "nM"}, {"measurement": "IC50", "setting": "[5]; [11]", "value": 907, "unit": "nM"}]}, {"sequence": "MSPALFFTFL", "values": [{"measurement": "IC50", "setting": "[1]; [12]", "value": 6.38, "unit": "µM"}, {"measurement": "IC50", "setting": "[2]; [12]", "value": 7.64, "unit": "µM"}, {"measurement": "IC50", "setting": "[3]; [12]", "value": 834, "unit": "nM"}, {"measurement": "IC50", "setting": "[4]; [12]", "value": 102, "unit": "nM"}, {"measurement": "IC50", "setting": "[5]; [12]", "value": 547, "unit": "nM"}]}, {"sequence": "LLLIVQALR", "values": [{"measurement": "IC50", "setting": "[2]; [14]", "value": 8.19, "unit": "µM"}, {"measurement": "IC50", "setting": "[6]; [14]", "value": 42.4, "unit": "µM"}, {"measurement": "IC50", "setting": "[7]; [14]", "value": 3090, "unit": "nM"}, {"measurement": "IC50", "setting": "[3]; [14]", "value": 3150, "unit": "nM"}, {"measurement": "IC50", "setting": "[5]; [14]", "value": 1490, "unit": "nM"}]}, {"sequence": "DVQRTRCKYV", "values": [{"measurement": "IC50", "setting": "[2]; [11]", "value": 6.46, "unit": "µM"}, {"measurement": "IC50", "setting": "[8]; [11]", "value": 9.51, "unit": "µM"}, {"measurement": "IC50", "setting": "[7]; [11]", "value": 1570, "unit": "nM"}, {"measurement": "IC50", "setting": "[4]; [11]", "value": 1460, "unit": "nM"}, {"measurement": "IC50", "setting": "[5]; [11]", "value": 1070, "unit": "nM"}]}, {"sequence": "TQSGALEVLM", "values": [{"measurement": "IC50", "setting": "[1]; [11]", "value": 10.6, "unit": "µM"}, {"measurement": "IC50", "setting": "[2]; [11]", "value": 15.4, "unit": "µM"}, {"measurement": "IC50", "setting": "[6]; [11]", "value": 12.3, "unit": "µM"}, {"measurement": "IC50", "setting": "[3]; [11]", "value": 2230, "unit": "nM"}, {"measurement": "IC50", "setting": "[5]; [11]", "value": 836, "unit": "nM"}]}, {"sequence": "MVEYLENQL", "values": [{"measurement": "IC50", "setting": "[1]; [11]", "value": 12, "unit": "µM"}, {"measurement": "IC50", "setting": "[2]; [11]", "value": 6.46, "unit": "µM"}, {"measurement": "IC50", "setting": "[3]; [11]", "value": 3960, "unit": "nM"}, {"measurement": "IC50", "setting": "[4]; [11]", "value": 591, "unit": "nM"}, {"measurement": "IC50", "setting": "[5]; [11]", "value": 343, "unit": "nM"}]}]}
